Columns and labels:
[1] = target: human interleukin-2 (human) (UniProt P60568); experiment: sandwich ELISA, hIL-2 captured on coated 5344, biotinylated MAB602 as detector, no competitor (well H11)
[2] = target: human interleukin-2 (human) (UniProt P60568); experiment: SPR, antibody amine-coupled to GLM chip, hIL-2 as analyte (100 nM, three-fold dilutions)
[3] = target: murine interleukin-2 (mouse) (UniProt P04351); experiment: SPR, MAB602 amine-coupled to GLM chip, mouse IL-2 as analyte at concentrations >1 nM
Sequence of murine interleukin-2 (mouse) (P04351 21-169 limits assumed): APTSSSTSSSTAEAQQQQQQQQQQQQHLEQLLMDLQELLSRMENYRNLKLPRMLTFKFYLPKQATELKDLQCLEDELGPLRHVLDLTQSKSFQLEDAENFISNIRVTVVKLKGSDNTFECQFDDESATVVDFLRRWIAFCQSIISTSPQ

Sequence of human interleukin-2 (human) (P60568 21-153 limits assumed): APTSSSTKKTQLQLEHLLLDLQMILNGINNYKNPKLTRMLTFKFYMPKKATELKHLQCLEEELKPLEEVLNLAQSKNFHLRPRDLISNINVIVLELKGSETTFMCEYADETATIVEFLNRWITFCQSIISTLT

B1: commercially available anti-human IL-2 monoclonal antibody MAB602 (antibody, from another filing, V domains shown)
VH: EVQLQESGPGLVAPSQSLSITCTVSGFSLTNYDISWIRQPPGKGLEWLGVIWTGGGTNYNSGFMSRLSITKDNSKSQVFLKMNSLQTDDTAIYYCVRQGRTPYWGQGTLVTVSA
VL: DIQVTQSPSSLSVSLGDRVTITCKASKDIYNRLAWYQQKPGNAPRLLISGATSLETGVPSRFSGSGSGKDYTLTITSLQTEDVATYYCQQFWGTPYTFGGGTKLEIKR
absorbance (OD450) [1]: 1.1 OD450
Kd [2]: 9.7 nM
koff [2]: 0.000494 s⁻¹
response units (RU) [3]: > 10 RU

— US20190016796A1
